US20250388695A1 (PROMAB BIOTECHNOLOGIES, published 2025)

B1: Humanized EPCAM ScFv-linker-CD3 ScFv-His tag (BITE) antibody PBM0065 (FIG. 1B structure) (bispecific antibody)
scFv: QVQLVQSGSELKKPGASVKVSCKASGYTFTNYGMNWVRQAPGQGLEWMGWINTYTGEPTYADDFKGRFVFSLDTSVSTAYLQISSLKAEDTAVYYCARWLRDFDYWGAGTTVTVSSGGGGSGGGGSGGGGSEIVLTQSPATLSLSPGERATLSCSASSSISYMHWYQQKPGQAPRLLIYDTSKLATGIPARFSGSGSGTDFTLTISSLEPEDFAVYYCHQRSSYPYTFGGGTKLEIKGGGGSGGGGSGGGGSEVQLLESGGGLVQPGGSLRLSCAASGFTFSTYAMNWVRQAPGKGLEWVSRIRSKYNNYATYYADSVKGRFTISRDDSKNTLYLQMNSLRAEDTAVYYCVRHGNFGNSYVSWFAYWGQGTLVTVSSGGGGSGGGGSGGGGSQAVVTQEPSLTVSPGGTVTLTCGSSTGAVTTSNYANWVQEKPGQAFRGLIGGTNKRAPGTPARFSGSLLGGKAALTLSGAQPEDEAEYYCALWYSNLWVFGGGTKLTVLHHHHHH
B2: Humanized EPCAM-CD3 bivalent CrossFAB knob-in-hole bispecific antibody PBM005 (FIG. 1A structure) (bispecific antibody)
light: EIVLTQSPATLSLSPGERATLSCSASSSISYMHWYQQKPGQAPRLLIYDTSKLATGIPARFSGSGSGTDFTLTISSLEPEDFAVYYCHQRSSYPYTFGGGTKLEIKRTVAAPSVFIFPPSDEQLKSGTASVVCLLNNFYPREAKVQWKVDNALQSGNSQESVTEQDSKDSTYSLSSTLTLSKADYEKHKVYACEVTHQGLSSPVTKSFNRGEC
chain: QAVVTQEPSLTVSPGGTVTLTCGSSTGAVTTSNYANWVQEKPGQAFRGLIGGTNKRAPGTPARFSGSLLGGKAALTLSGAQPEDEAEYYCALWYSNLWVFGGGTKLTVLSSASTKGPSVFPLAPSSKSTSGGTAALGCLVKDYFPEPVTVSWNSGALTSGVHTFPAVLQSSGLYSLSSVVTVPSSSLGTQTYICNVNHKPSNTKVDKKVEPKSC
heavy 1: not shown
heavy 2: QVQLVQSGSELKKPGASVKVSCKASGYTFTNYGMNWVRQAPGQGLEWMGWINTYTGEPTYADDFKGRFVFSLDTSVSTAYLQISSLKAEDTAVYYCARWLRDFDYWGAGTTVTVSSTKGPSVFPLAPSSKSTSGGTAALGCLVKDYFPEPVTVSWNSGALTSGVHTFPAVLQSSGLYSLSSVVTVPSSSLGTQTYICNVNHKPSNTKVDKKVEPKSCDKTHTCPPCPAPEAAGGPSVFLFPPKPKDTLMISRTPEVTCVVVDVSHEDPEVKFNWYVDGVEVHNAKTKPREEQYNSTYRVVSVLTVLHQDWLNGKEYKCKVSNKALGAPIEKTISKAKGQPREPQVCTLPPSRDELTKNQVSLSCAVKGFYPSDIAVEWESNGQPENNYKTTPPVLDSDGSFFLVSKLTVDKSRWQQGNVFSCSVMHEALHNHYTQKSLSLSPGK
notes: Four constructs co-transfected in 293S cells at 2:1:1:1; Supernatant or protein A purified antibody was used; also called EPCAM-CROSS-FAB-CD3 Knob in hole (KIH) CrossFAB format antibody; EpCAM-CD3 CrossMab knob-in-hole

Tests used:
[1] = target: T1, Human EPCAM (Epithelial Cell Adhesion Molecule) on EPCAM-positive Lovo cells (human, UniProt P16422 24-314); assay: cell-based or functional assay
T1 sequence (looked up): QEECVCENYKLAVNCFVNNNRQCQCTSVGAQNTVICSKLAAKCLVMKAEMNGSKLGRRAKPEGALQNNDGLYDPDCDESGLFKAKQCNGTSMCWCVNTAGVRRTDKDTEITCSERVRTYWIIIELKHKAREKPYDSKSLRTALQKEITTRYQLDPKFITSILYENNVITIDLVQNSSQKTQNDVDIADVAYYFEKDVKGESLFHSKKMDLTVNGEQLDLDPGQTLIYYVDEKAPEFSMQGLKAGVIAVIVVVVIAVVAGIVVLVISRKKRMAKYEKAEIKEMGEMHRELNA

[2] = target: T2, Human CD3 epsilon chain on CD3-positive T cells (human, UniProt P07766 23-207); assay: FACS on T cells
T2 construct: whole, on cells; also called CD3 antigen
T2 sequence (P07766 23-207): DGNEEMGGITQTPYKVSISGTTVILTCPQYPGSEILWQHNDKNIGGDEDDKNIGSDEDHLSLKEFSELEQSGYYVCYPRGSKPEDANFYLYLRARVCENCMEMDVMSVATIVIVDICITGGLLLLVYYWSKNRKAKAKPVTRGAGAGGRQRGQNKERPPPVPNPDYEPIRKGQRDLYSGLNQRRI

[3] = target: T1, Human EPCAM (Epithelial Cell Adhesion …); assay: FACS on EPCAM-positive cells

| Binder | EC50 based on IFN-gamma secretion [1] [ng/mL] | binding result [2] | binding result [3] |
| --- | --- | --- | --- |
| B1 | 5.28 |  |  |
| B2 |  | binds | binds |
